# Patent US20050271638A1 (published 2005)
# T1: β-catenin (mouse, UniProt Q02248 2-781)
# T1 construct: whole, on cells; Detected by immunostaining; also called B-catenin
# T1 sequence (looked up): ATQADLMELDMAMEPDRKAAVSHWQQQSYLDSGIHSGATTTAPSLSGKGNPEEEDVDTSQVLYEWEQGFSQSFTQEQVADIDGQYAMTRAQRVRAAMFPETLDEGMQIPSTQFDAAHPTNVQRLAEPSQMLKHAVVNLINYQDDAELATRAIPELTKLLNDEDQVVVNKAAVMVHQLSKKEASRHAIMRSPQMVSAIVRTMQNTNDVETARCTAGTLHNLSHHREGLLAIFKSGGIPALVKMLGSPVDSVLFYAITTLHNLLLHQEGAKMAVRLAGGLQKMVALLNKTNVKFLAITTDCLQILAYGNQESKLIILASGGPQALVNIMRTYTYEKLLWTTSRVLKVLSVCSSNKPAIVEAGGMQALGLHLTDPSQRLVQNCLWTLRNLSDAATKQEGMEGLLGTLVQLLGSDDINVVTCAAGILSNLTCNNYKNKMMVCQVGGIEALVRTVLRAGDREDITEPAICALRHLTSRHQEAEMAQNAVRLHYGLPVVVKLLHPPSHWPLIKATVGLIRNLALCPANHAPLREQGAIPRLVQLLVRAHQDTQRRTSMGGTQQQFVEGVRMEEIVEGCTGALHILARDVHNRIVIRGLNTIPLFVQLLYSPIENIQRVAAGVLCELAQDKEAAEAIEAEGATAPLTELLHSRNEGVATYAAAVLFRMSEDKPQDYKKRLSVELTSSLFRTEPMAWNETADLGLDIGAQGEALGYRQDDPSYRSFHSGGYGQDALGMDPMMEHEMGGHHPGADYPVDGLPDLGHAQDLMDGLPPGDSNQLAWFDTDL
# B1: N-cadherin (other, mouse, UniProt P15116 160-906, looked up)
# chain: DWVIPPINLPENSRGPFPQELVRIRSDRDKNLSLRYSVTGPGADQPPTGIFIINPISGQLSVTKPLDRELIARFHLRAHAVDINGNQVENPIDIVINVIDMNDNRPEFLHQVWNGSVPEGSKPGTYVMTVTAIDADDPNALNGMLRYRILSQAPSTPSPNMFTINNETGDIITVAAGLDREKVQQYTLIIQATDMEGNPTYGLSNTATAVITVTDVNDNPPEFTAMTFYGEVPENRVDVIVANLTVTDKDQPHTPAWNAAYRISGGDPTGRFAILTDPNSNDGLVTVVKPIDFETNRMFVLTVAAENQVPLAKGIQHPPQSTATVSVTVIDVNENPYFAPNPKIIRQEEGLHAGTMLTTLTAQDPDRYMQQNIRYTKLSDPANWLKIDPVNGQITTIAVLDRESPNVKNNIYNATFLASDNGIPPMSGTGTLQIYLLDINDNAPQVLPQEAETCETPEPNSINITALDYDIDPNAGPFAFDLPLSPVTIKRNWTINRLNGDFAQLNLKIKFLEAGIYEVPIIITDSGNPPKSNISILRVKVCQCDSNGDCTDVDRIVGAGLGTGAIIAILLCIIILLILVLMFVVWMKRRDKERQAKQLLIDPEDDVRDNILKYDEEGGGEEDQDYDLSQLQQPDTVEPDAIKPVGIRRLDERPIHAEPQYPVRSAAPHPGDIGDFINEGLKAADNDPTAPPYDSLLVFDYEGSGSTAGSLSSLNSSSSGGDQDYDYLNDWGPRFKKLADMYGGGDD
# notes: whole, on cells; Detected by immunostaining
# Target: T1, β-catenin
# Test: co-immunostaining of wild-type mouse intestine sections (FIG. 7G)
binder,measurement,value
B1,binding result,binds
